From paper doi:10.1101/2023.12.23.573190 (bioRxiv, 2023)

Columns and labels:
[1] = target: carbonic anhydrase II protein (Sigma Aldrich, C2522) (Bos taurus, UniProt P00921); experiment: SPR
[2] = target: PTPRZ1 CA protein (Cusabio Technology LLC, CSB-YP019068HU) (Homo sapiens, UniProt P23471); experiment: SPR
PTPRZ1 CA protein (Cusabio Technology LLC, CSB-YP019068HU), sequence (P23471 36-300): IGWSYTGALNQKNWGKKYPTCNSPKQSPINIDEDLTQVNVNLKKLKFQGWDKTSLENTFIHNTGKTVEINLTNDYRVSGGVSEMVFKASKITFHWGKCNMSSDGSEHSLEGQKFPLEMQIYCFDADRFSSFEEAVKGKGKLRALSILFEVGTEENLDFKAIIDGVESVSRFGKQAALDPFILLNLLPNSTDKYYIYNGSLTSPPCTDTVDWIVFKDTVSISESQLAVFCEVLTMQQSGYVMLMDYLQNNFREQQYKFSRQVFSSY

carbonic anhydrase II protein (Sigma Aldrich, C2522), sequence (P00921 whole entry): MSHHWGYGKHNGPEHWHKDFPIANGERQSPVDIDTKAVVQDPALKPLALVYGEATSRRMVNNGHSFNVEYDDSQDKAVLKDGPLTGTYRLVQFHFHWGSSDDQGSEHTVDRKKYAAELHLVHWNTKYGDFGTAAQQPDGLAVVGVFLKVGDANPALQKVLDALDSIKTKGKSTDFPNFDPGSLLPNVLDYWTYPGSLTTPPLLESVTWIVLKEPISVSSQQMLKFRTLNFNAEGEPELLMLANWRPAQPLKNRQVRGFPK

- binding result [1]: no binding (tested: 800 nM)
- Kd [2]: 57.4 nM
B1: anti-PTPRZ1 scFv RB473, scFv-Rabbit Fc (scFv, V domains shown)
VH: not shown
VL: QSVLTQPPSVSAAPGQKVTISCSGSSSNIGNNYVSWYQQLPGTAPKLLIYDNNKRPSGIPDRFSGSKSGTSATLGITGLQTGDEADYYCGTYDYIATRAVFGGGTKLTVL
